± gives the uncertainty stated by the source.
Experiment: self-splicing fitness, log relative to wild type (ln ratio); higher = more splicing; Tetrahymena group I intron in knt gene, E. coli kanamycin selection, DiMSum; sequences stand for … in CUCUCU…GGAGGGAAAAGUUAUCAGGCAUGCACCUGGUAGCUAGUCUUUAAACCAAUAGAUUGCAUCGGUUUAAAAGGCAAGACCGUCAAAUUGCGGGAAAGGGGUCAACAGCCGUUCAGUACCAAGUCUCAGGGGAAACUUUGAGAUGGCCUUGCAAAGGGUAUGGUAAUAAGCUGACGGACAUGGUCCUAACCACGCAGCCAAGUCCUAAGUCAACAGAUCUUCUGUUGAUAUGGAUGCAGUUCACAGACUAAAUGUCGGUCGGGGAAGAUGUAUUCUUCUCAUAAGAUAUAGUCGGACCUCUCCUUAAUGGGAGCUAGCGGAUGAAGUGAUGCAACACUGGAGCCGCUGGGAACUAAUUUGUAUGCGAAAGUAUAUUGAUUAGUUUUGGAGUACUCGUGGUCG
Method in brief: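 A randomised library covering all eight P1ex-region intron nucleotides was built with the intron in the knt kanamycin-resistance gene on pET-22b(+) and held in E. coli BL21(DE3). Cells were grown overnight at 37°C or 30°C on LB agar, with or without 25 μg/mL kanamycin, plus 100 μg/mL carbenicillin, 50 μM IPTG and 0.2% rhamnose, and pooled colonies were amplicon-sequenced on an Illumina HiSeq 2500. DiMSum fitness is the error-weighted combination of wild-type-normalised replicate fold changes, kanamycin versus none.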

Sequence	self-splicing fitness (ln) (30 °C)	self-splicing fitness (ln) (37 °C)
AUUGAGCAAUAUUACGGUCA	-2.13 ± 0.19	-0.756 ± 0.13
AUUGAGCAAUAUUACGUAAU	-1.68 ± 0.13	-0.364 ± 0.19
AUUGAGCAAUAUUACGUCAA	-3.05 ± 0.26	-2.6 ± 0.28
AUUGAGCAAUAUUACGUGCU	-3.03 ± 0.24	-3.17 ± 0.35
AUUGAGCAAUAUUACGUGUC	-4.77 ± 0.26	-2.53 ± 0.15
AUUUAGCAAUAUUACGAACG	-0.287 ± 0.16	-0.464 ± 0.29
AUUUAGCAAUAUUACGACCG	-1.54 ± 0.24	-0.522 ± 0.23
AUUUAGCAAUAUUACGAGCG	-2.66 ± 0.23	-1.05 ± 0.2
AUUUAGCAAUAUUACGAUGG	-2.89 ± 0.34	
AUUUAGCAAUAUUACGCAGG	-3.36 ± 0.38	
AUUUAGCAAUAUUACGCCGA	-1.94 ± 0.28	-1.09 ± 0.23
AUUUAGCAAUAUUACGCUAA	-2.13 ± 0.23	-1.3 ± 0.31
AUUUAGCAAUAUUACGGAGG	-2.53 ± 0.19	-2.06 ± 0.27
AUUUAGCAAUAUUACGGCCG	-1.29 ± 0.15	-1.6 ± 0.15
AUUUAGCAAUAUUACGGUUA	-0.84 ± 0.16	-0.183 ± 0.13
AUUUAGCAAUAUUACGGUUU	-1.02 ± 0.096	-0.0857 ± 0.12
AUUUAGCAAUAUUACGUAAA	-2.28 ± 0.21	-1.09 ± 0.18
AUUUAGCAAUAUUACGUCAC	-3.2 ± 0.37	-1.42 ± 0.32
AUUUAGCAAUAUUACGUCCU	-0.237 ± 0.16	0.18 ± 0.23
AUUUAGCAAUAUUACGUGAU	-0.978 ± 0.12	-0.863 ± 0.12
AUUUAGCAAUAUUACGUGUA	-2.42 ± 0.23	-1.5 ± 0.17
AUUUAGCAAUAUUACGUGUU	-1.73 ± 0.14	0.39 ± 0.14
CAAAAGCAAUAUUACGAAAG	-0.791 ± 0.077	-0.705 ± 0.097
CAAAAGCAAUAUUACGAACU	-2.51 ± 0.19	-1.3 ± 0.21
CAAAAGCAAUAUUACGAAGG	-1.87 ± 0.11	-0.758 ± 0.13
CAAAAGCAAUAUUACGAAUU	-3.52 ± 0.18	-2.27 ± 0.22

Sequence	self-splicing fitness (ln) (30 °C)	self-splicing fitness (ln) (37 °C)
CAAAAGCAAUAUUACGACAG	-0.12 ± 0.062	-0.154 ± 0.083
CAAAAGCAAUAUUACGACUA	-1.52 ± 0.13	-0.952 ± 0.12
CAAAAGCAAUAUUACGACUU	-1.83 ± 0.098	-0.224 ± 0.098
CAAAAGCAAUAUUACGAGAA	-1.51 ± 0.24	-2.47 ± 0.25
CAAAAGCAAUAUUACGAGCC	-3.49 ± 0.3	
CAAAAGCAAUAUUACGAGCG	-0.129 ± 0.077	0.342 ± 0.097
CAAAAGCAAUAUUACGAUAG	-0.0755 ± 0.065	0.3 ± 0.083
CAAAAGCAAUAUUACGAUCG	0.0933 ± 0.07	0.514 ± 0.09
CAAAAGCAAUAUUACGCACA	-1.75 ± 0.1	-0.746 ± 0.11
CAAAAGCAAUAUUACGCACG	-1.5 ± 0.098	-0.59 ± 0.12
CAAAAGCAAUAUUACGCCAA	-3.4 ± 0.36	-2.1 ± 0.24
CAAAAGCAAUAUUACGCCAG	-0.849 ± 0.075	-1.32 ± 0.09
CAAAAGCAAUAUUACGCCCC	-3.27 ± 0.3	
CAAAAGCAAUAUUACGCUUU	-3.96 ± 0.21	-2.55 ± 0.17
CAAAAGCAAUAUUACGGAUA	-3.27 ± 0.31	-1.81 ± 0.16
CAAAAGCAAUAUUACGGGAA	-2.69 ± 0.23	-1.13 ± 0.2
CAAAAGCAAUAUUACGGGGU	-4.06 ± 0.2	-2.7 ± 0.18
CAAAAGCAAUAUUACGGGUG	-0.689 ± 0.046	-0.361 ± 0.076
CAAAAGCAAUAUUACGGUGC	-3.76 ± 0.24	-2.8 ± 0.24
CAAAAGCAAUAUUACGGUUU	-2.93 ± 0.11	-1.21 ± 0.1
CAAAAGCAAUAUUACGUACG	-0.125 ± 0.061	0.143 ± 0.07
CAAAAGCAAUAUUACGUACU	-2.74 ± 0.11	-0.995 ± 0.09
CAAAAGCAAUAUUACGUAUC	-4.08 ± 0.21	-1.02 ± 0.15
CAAAAGCAAUAUUACGUGAG	-1.06 ± 0.04	-0.328 ± 0.069
CAAAAGCAAUAUUACGUGCG	-1 ± 0.051	-0.35 ± 0.063
CAAAAGCAAUAUUACGUUCU	-1.3 ± 0.14	-0.926 ± 0.14

Sequence	self-splicing fitness (ln) (30 °C)	self-splicing fitness (ln) (37 °C)
CAACAGCAAUAUUACGACGG	-0.0366 ± 0.058	0.186 ± 0.085
CAACAGCAAUAUUACGAGAU	-3.74 ± 0.2	-1.79 ± 0.15
CAACAGCAAUAUUACGAGGG	-2.38 ± 0.073	-2.2 ± 0.094
CAACAGCAAUAUUACGAGGU	-4.43 ± 0.29	-2.24 ± 0.17
CAACAGCAAUAUUACGAUAG	-0.377 ± 0.052	0.653 ± 0.07
CAACAGCAAUAUUACGAUUG	-2.22 ± 0.063	-1.42 ± 0.073
CAACAGCAAUAUUACGCAGU	-2.78 ± 0.19	-3.62 ± 0.3
CAACAGCAAUAUUACGCAUU	-3.14 ± 0.091	-1.79 ± 0.089
CAACAGCAAUAUUACGCCAU	-3.25 ± 0.11	-2.94 ± 0.14
CAACAGCAAUAUUACGCCCG	-0.408 ± 0.098	0.465 ± 0.12
CAACAGCAAUAUUACGCGUG	-4.02 ± 0.22	-3.31 ± 0.16
CAACAGCAAUAUUACGCUCC	-1.72 ± 0.098	-0.675 ± 0.14
CAACAGCAAUAUUACGCUGA	-3.74 ± 0.2	-3.02 ± 0.2
CAACAGCAAUAUUACGGGUA	-3.03 ± 0.12	-1.22 ± 0.084
CAACAGCAAUAUUACGGGUG	-1.65 ± 0.051	-0.569 ± 0.057
CAACAGCAAUAUUACGGUAU	-3.52 ± 0.1	-1.9 ± 0.09
CAACAGCAAUAUUACGGUUC	-1.89 ± 0.075	-1.34 ± 0.1
CAACAGCAAUAUUACGUACG	-0.0141 ± 0.079	0.194 ± 0.11
CAACAGCAAUAUUACGUCAU	-3.92 ± 0.12	-1.86 ± 0.1
CAACAGCAAUAUUACGUCUU	-1.48 ± 0.061	-0.62 ± 0.07
CAACAGCAAUAUUACGUUUA	-1.62 ± 0.086	-0.887 ± 0.073
CAAGAGCAAUAUUACGAAAC	-2.91 ± 0.36	
CAAGAGCAAUAUUACGAAGA	-1.75 ± 0.35	-3.14 ± 0.43
CAAGAGCAAUAUUACGAAUA	-2.52 ± 0.34	-2.28 ± 0.36
CAAGAGCAAUAUUACGAUGG	-1.1 ± 0.091	-0.943 ± 0.077
